Kd data for 3 substances are collected here from publication PMC5727262, “Molecular mechanism of K65 acetylation-induced attenuation of Ubc9 and the NDSM interaction” (Scientific Reports, 2017).

Experiment [1] concerns the target Ac-Ubc9K65 (Ubc9 acetylated at K65) (UniProt P63279). Put plainly: ITC; 2 μl additions of peptide to 200 μl of WT Ubc9 or Ac-Ubc9K65; 25 °C; pH 8.0, 20 mM potassium phosphate, 100 mM NaCl; iTC200; fitted assuming 1:1 binding stoichiometry. On the technique in general: ITC needs no label: the signal is the heat of the interaction.
In a further experiment the target is Ubc9 (wild type) (UniProt P63279). The experiment is described as above.
Sequence of Ubc9 (wild type) (P63279 whole entry): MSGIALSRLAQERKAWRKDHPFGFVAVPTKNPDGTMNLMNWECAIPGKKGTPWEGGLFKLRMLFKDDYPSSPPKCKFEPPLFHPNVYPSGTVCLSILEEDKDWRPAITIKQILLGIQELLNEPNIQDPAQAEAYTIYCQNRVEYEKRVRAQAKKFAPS

Sequence of Ac-Ubc9K65 (Ubc9 acetylated at K65) (P63279 whole entry): as above

By Kd is commonly meant the free concentration of one partner at which half of the binding sites on the other are occupied at equilibrium, for simple one-to-one binding. A high value points to lower affinity. With Calpain2 NDSM peptide, the results for the Kd (in experiment [1]; with Ubc9 (wild type)) were 80 µM and 56 µM, respectively.
Regarding “Elk1 NDSM peptide (from UniProt P19419 242-261)”, the Kd in experiment [1] was determined as 103 µM; in the experiment with Ubc9 (wild type), 70 µM.
As to “RanGAP1 peptide (consensus sumoylation motif) (from UniProt P46060 517-536)”, the Kd (in experiment [1]; with Ubc9 (wild type)) was 13 µM each time.
